# Source: patent US20230265123A1, “PEPTIDES AND FORMULATIONS FOR CANCER TREATMENT” (Peptinovo Biopharma, Inc., priority 2020, published 2023)
# Square brackets hold non-standard residues; d marks the D form. Ends that are not written are not given here. Aib = CC(C)(N)C(=O)O
# Target: T1, human SR-BI (Homo sapiens, UniProt Q8WTV0)
# T1 construct: expressed in transfected cells; host or cells: BHK(SR-BI) cells obtained from the NIH, GeneSwitch System (Invitrogen), induced with 10 nM mifepristone
# T1 sequence (Q8WTV0 1-509 isoform Q8WTV0-2): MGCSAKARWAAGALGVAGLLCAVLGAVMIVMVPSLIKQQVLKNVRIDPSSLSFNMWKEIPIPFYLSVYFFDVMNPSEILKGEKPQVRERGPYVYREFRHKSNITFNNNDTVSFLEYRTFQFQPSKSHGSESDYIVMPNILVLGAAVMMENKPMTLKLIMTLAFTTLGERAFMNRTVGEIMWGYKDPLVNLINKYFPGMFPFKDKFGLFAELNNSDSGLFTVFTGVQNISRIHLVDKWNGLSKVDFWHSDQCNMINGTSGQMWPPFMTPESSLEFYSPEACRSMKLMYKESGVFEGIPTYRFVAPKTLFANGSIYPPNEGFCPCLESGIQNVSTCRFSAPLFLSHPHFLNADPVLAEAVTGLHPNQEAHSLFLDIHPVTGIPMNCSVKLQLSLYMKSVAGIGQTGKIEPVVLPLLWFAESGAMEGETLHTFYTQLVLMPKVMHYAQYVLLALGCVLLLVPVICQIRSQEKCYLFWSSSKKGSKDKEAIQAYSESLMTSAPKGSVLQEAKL
# Test: DiI uptake from DiI-labeled PALM by BHK(SR-BI) cells, uninduced or mifepristone-induced (SR-BI selectivity)
# Type: cell-based
# Conditions: for Induced Uptake: BHK(SR-BI) cells induced with 10 nM mifepristone; for Induced Uptake / Basal Uptake: DiI-labeled PALM 32 μg peptide/ml or DiI-labeled HDL 19 μg protein/ml, 4 hours, ± SEM (n = 4); for SR-BI Dependent Uptake: Increase over basal uptake; for Basal Uptake: uninduced BHK(SR-BI) cells
# Description: The procedure essentially followed that described in Example 5. A 40 μl aliquot of 10 mM or peptide was combined with 56 μl of 20 mM POPC, 24 μl 20 mM SM(egg) and 16 μl 2.5 mM DiI in a small glass vial. The peptide and lipid stock solutions were prepared in 80% TBA/20% water. The DiI stock was prepared in 92% TBA/8% water. The solution was lyophilized, and the resultant cake was rehydrated by addition of 0.2 ml of Dulbeco's phosphate buffered saline. The solution was briefly swirled, water bath sonicated (for approx. 15 sec.) and placed in a 50° C. heating block for 20 minutes.
# SR-BI interaction studies are done with BHK(SR-BI) cells obtained from the NIH. The cells were stably transfected with an inducible human SR-BI gene by means of the GeneSwitch™ System (Invitrogen). The cells were plated (96-well plate) (8000 cells/well) in growth medium (Dulbeco's modified Eagle medium containing 10% fetal bovine serum) containing 200 ug/ml each of zeocin and hygromycin. After 24 hours incubation, the growth medium was removed and replaced with 0.2% bovine serum albumin in Dulbeco's modified Eagle medium. The medium of cells to be induced for SR-BI expression also contained 10 nM mifepristone, added from a DMSO stock solution. DMSO alone was added to the medium of uninduced cells. The induction medium was removed after 24 hours incubation and replaced with medium containing DiI-labeled PALM (32 μg peptide/ml) or DiI-labeled HDL (19 μg protein/ml) (Kalen Biomedical, Montgomery Village, Md.). The test media were prepared by diluting an aliquot of Di-I-labeled PALM (Example 6) or the DiI-labeled HDL in 0.2% bovine serum albumin in Dulbeco's modified Eagle medium. The solutions were passed through 0.2 μm pore size, polyethersulfone, sterilization filters before use. The cells were incubated in test media for 4 hours. Next, the cells were washed 3 times with 0.1% albumin in Dulbeco's phosphate buffered saline (with calcium and magnesium). The last wash was replaced with 200 ul/well of t-butanol/water (95%/5%). The covered plate was left to stand at room temperature for 30 min with occasional shaking. The fluorescence in each well was detected at 520 nm excitation and 580 nm emission with a 550 nm cutoff filter on a […] Gemini fluorescence plate reader, the results are shown in Table 6 and FIG. 7.
Substance,SR-BI Dependent Uptake [%],Induced Uptake,Basal Uptake
"DVFQKL{Aib}ELFNQL{Aib}EKFKQV (DVFQKL[Aib]ELFNQL[Aib]EKFKQV) [SEQ ID NO: 6, amphiphilic peptide used to form PALM]",82,27 ± 3 (DiI in cells)/(Total DiI added) × 10^−3,15 ± 1 (DiI in cells)/(Total DiI added) × 10^−3
"DVFQKL{Aib}ELFQQL{Aib}EKWKQV (DVFQKL[Aib]ELFQQL[Aib]EKWKQV) [SEQ ID NO: 9, amphiphilic peptide used to form PALM]",72,11 ± 2 (DiI in cells)/(Total DiI added) × 10^−3,6 ± 1 (DiI in cells)/(Total DiI added) × 10^−3
"DV{Aib}QKFLELFNQLLEKWKQV (DV[Aib]QKFLELFNQLLEKWKQV) [SEQ ID NO: 4, amphiphilic peptide used to form PALM]",66,10 ± 1 (DiI in cells)/(Total DiI added) × 10^−3,6 ± 1 (DiI in cells)/(Total DiI added) × 10^−3
"D{Aib}FQKL{Aib}ELFNQL{Aib}EKWKQV (D[Aib]FQKL[Aib]ELFNQL[Aib]EKWKQV) [SEQ ID NO: 7, amphiphilic peptide used to form PALM]",137,18 ± 2 (DiI in cells)/(Total DiI added) × 10^−3,8 ± 1 (DiI in cells)/(Total DiI added) × 10^−3
"PVLDLFRELLNELLEALKQKLK [SEQ ID NO: 11, reference compound]",55,5 ± 1 (DiI in cells)/(Total DiI added) × 10^−3,3 ± 1 (DiI in cells)/(Total DiI added) × 10^−3

# Now from value to substance, other results behind:
SR-BI Dependent Uptake [%],Substance,Induced Uptake,Basal Uptake
35,"DVFQKLVELFNQLLEKWKQV [SEQ ID NO: 2, amphiphilic peptide used to form PALM]",12 ± 2 (DiI in cells)/(Total DiI added) × 10^−3,9 ± 2 (DiI in cells)/(Total DiI added) × 10^−3
14,"DVFQKL{Aib}ELFKELLEKWKQV (DVFQKL[Aib]ELFKELLEKWKQV) [SEQ ID NO: 8, amphiphilic peptide used to form PALM]",20 ± 9 (DiI in cells)/(Total DiI added) × 10^−3,17 ± 8 (DiI in cells)/(Total DiI added) × 10^−3
53,"DVFQKL{Aib}ELFNQLLEKWKQV (DVFQKL[Aib]ELFNQLLEKWKQV) [SEQ ID NO: 1, amphiphilic alpha-helical peptide used to form PALM]",10 ± 1 (DiI in cells)/(Total DiI added) × 10^−3,6 ± 1 (DiI in cells)/(Total DiI added) × 10^−3
104,"DVFQKL{Aib}ELFNQL{Aib}EKWKQV (DVFQKL[Aib]ELFNQL[Aib]EKWKQV) [SEQ ID NO: 5, amphiphilic peptide used to form PALM]",16 ± 2 (DiI in cells)/(Total DiI added) × 10^−3,8 ± 1 (DiI in cells)/(Total DiI added) × 10^−3
78,"DVFQKL{Aib}ELFQNL{Aib}EKWKQV (DVFQKL[Aib]ELFQNL[Aib]EKWKQV) [SEQ ID NO: 10, amphiphilic peptide used to form PALM]",16 ± 2 (DiI in cells)/(Total DiI added) × 10^−3,9 ± 1 (DiI in cells)/(Total DiI added) × 10^−3
79,"DV{Aib}QKLFELFNQLLEKWKQV (DV[Aib]QKLFELFNQLLEKWKQV) [SEQ ID NO: 3, amphiphilic peptide used to form PALM]",11 ± 2 (DiI in cells)/(Total DiI added) × 10^−3,6 ± 1 (DiI in cells)/(Total DiI added) × 10^−3
